Results taken from PMC3629973 (Nuclear medicine and biology, 2012).
Entries after “also recorded” stand apart in the source; their conditions may differ.

Assays:
[1] = Biodistribution in PC-3 tumor-bearing SCID mice; settings: female, mouse, in vivo, iv, total radioactivity; for tissue uptake at 24 h: 24 h p.i.
[2] = tested on: PC-3 tumor-bearing SCID mice; experiment: Biodistribution in PC-3 tumor-bearing SCID mice; settings: PC-3 tumor-bearing SCID mice, tail vein injection, 1 h p.i., mean±S.D., n=5, bilateral xenografts
PC-3 cells [3] = experiment: In vitro internalization assay; format: cell-based, human; settings: 37°C, postincubation
CF-1 mice = experiment: Biodistribution in healthy CF-1 mice; format: in vivo, mouse; settings: CF-1 mice, tail vein injection, after 1 h p.i.
[4] = Biodistribution in healthy CF-1 mice; format: in vivo, mouse; settings: female, CF-1, mouse, iv, 750 kBq, total radioactivity
[5] = tested on: PC-3 tumor-bearing SCID mouse; experiment: MicroPET/CT imaging; format: in vivo; settings: PC-3 tumor-bearing mouse, 26 MBq via tail vein, 15 h p.i.
in vivo = settings: female, SCID, mouse, iv, 750 kBq, total radioactivity; for tissue uptake at 1 h / tissue uptake at 4 h / tissue uptake at 24 h: Biodistribution
PC-3 cells [6] = experiment: Blocking experiment, cellular uptake of tracer; format: cell-based, human; settings: 50 μg blocker added 15 min prior to tracer
GRPr = settings: read-out: GRPr binding affinity; nonmetallated probe; cited from earlier work
[7] = tested on: PC-3 tumor uptake in nude mice; settings: mouse, in vivo; cited from earlier work
[8] = later time points; cited from earlier work
[9] = biological target: αvβ3 receptors on PC-3 cells (Homo sapiens, UniProt P05106+P06756); experiment: Cell binding assay, displacement of 125I-Echistatin in PC-3 cells
Sequence of αvβ3 receptors on PC-3 cells (P06756 31-889 limits assumed): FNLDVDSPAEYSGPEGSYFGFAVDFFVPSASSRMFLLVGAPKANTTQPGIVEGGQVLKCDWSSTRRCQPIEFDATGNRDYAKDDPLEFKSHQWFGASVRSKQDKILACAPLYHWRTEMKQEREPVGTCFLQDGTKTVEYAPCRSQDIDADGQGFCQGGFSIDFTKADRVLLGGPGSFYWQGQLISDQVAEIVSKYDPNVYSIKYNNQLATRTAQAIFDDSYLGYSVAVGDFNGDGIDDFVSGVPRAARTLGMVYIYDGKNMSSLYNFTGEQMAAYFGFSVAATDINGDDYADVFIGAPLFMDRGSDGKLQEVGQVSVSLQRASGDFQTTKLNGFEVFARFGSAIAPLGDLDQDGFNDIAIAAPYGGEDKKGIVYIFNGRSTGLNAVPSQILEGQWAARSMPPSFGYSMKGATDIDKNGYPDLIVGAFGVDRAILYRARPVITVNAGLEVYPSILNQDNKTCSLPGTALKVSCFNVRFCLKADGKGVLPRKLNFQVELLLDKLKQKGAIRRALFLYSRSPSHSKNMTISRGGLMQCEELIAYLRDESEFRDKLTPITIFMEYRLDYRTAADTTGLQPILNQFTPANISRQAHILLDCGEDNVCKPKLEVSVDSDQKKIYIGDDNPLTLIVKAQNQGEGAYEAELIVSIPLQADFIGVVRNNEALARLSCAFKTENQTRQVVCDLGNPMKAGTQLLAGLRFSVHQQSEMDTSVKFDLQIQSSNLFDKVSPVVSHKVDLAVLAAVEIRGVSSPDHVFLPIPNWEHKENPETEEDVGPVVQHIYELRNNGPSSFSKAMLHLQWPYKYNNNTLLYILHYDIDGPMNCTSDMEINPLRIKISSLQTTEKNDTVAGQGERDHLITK
Sequence of αvβ3 receptors on PC-3 cells (P06756 891-1048 partner limits assumed): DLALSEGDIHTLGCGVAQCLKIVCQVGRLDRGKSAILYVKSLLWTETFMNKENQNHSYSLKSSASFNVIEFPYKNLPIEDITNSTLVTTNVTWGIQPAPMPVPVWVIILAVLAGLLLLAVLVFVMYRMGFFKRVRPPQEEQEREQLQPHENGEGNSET
Sequence of αvβ3 receptors on PC-3 cells (P05106 27-788): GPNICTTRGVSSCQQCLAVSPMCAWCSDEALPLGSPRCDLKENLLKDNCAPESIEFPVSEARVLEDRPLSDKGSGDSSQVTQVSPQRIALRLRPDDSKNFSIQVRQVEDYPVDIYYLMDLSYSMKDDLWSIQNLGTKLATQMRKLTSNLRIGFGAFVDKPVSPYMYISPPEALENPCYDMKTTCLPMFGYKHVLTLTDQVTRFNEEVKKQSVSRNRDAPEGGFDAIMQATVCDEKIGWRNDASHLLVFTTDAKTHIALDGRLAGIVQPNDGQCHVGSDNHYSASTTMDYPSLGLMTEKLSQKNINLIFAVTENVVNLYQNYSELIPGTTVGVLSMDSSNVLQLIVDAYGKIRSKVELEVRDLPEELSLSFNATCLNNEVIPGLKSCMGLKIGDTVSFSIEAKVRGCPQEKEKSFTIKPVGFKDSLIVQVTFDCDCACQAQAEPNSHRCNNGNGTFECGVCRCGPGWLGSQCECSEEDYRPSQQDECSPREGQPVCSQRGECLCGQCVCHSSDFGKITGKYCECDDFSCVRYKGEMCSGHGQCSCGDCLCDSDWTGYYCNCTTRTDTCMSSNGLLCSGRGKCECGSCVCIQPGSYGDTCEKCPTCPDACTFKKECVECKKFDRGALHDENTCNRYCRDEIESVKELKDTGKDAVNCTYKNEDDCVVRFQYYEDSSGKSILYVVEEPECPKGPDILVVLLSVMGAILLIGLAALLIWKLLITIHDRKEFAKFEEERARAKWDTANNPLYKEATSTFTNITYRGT

Work on `CSCC[C@H](NC(=O)[C@H](CC(C)C)NC(=O)[C@H](Cc1c[nH]cn1)NC(=O)CNC(=O)[C@@H](NC(=O)[C@H](C)NC(=O)[C@H](Cc1c[nH]c2ccccc12)NC(=O)[C@H](CCC(N)=O)NC(=O)CCCCCNC(=O)[C@H](CCC(=O)NCCCC[C@@H]1NC(=O)[C@@H](Cc2ccc(O)cc2)NC(=O)[C@H](CC(=O)O)NC(=O)CNC(=O)[C@H](CCCNC(=N)N)NC1=O)NC(=O)CN1CCN(CC(=O)O)CCN(CC(=O)O)CC1)C(C)C)C(N)=O` [^64Cu-NO2A-RGD-Glu-6-Ahx-BBN(7-14)NH2, metal not drawn] yielded a tissue uptake at 1 h ([1]; ICR SCID, 750 kBq (~20 uCi)) of 1.04 ± 0.08 %ID/g, a tissue uptake at 1 h ([1]; SCID, 750 kBq, Biodistribution, Bladder, PC-3 tumor-bearing SCID mice, tail vein injection, 1 h p.i., mean±S.D., n=5) of 3.39 ± 3.54 %ID/g and a tissue uptake at 4 h ([1]; SCID, 750 kBq, Biodistribution, Bladder, PC-3 tumor-bearing SCID mice, tail vein injection, 4 h p.i., mean±S.D., n=5) of 0.55 ± 0.33 %ID/g. For the same compound, the tissue uptake at 24 h ([1]; SCID, 750 kBq, Biodistribution, Bladder, PC-3 tumor-bearing SCID mice, tail vein injection, mean±S.D., n=5) was 0.31 ± 0.29 %ID/g, the tissue uptake at 24 h ([1]; SCID, 750 kBq, Biodistribution, Tumor, PC-3 tumor-bearing SCID mice, tail vein injection, mean±S.D., n=5, bilateral xenografts) was 2.42 ± 0.57 %ID/g and the “Biodistribution, Tumor” value [2] was 3.95±1.04 %ID/g. For the same compound, the “Time of maximum internalization” value (PC-3 cells [3]) was ~ 90 min, the Urinary excretion (CF-1 mice) was about 85% and the tissue uptake at 1 h ([4]; pancreas) was 5.9 ± 1.74 %ID/g. For the same compound, the tissue uptake dose at 1 h ([4]; whole blood) was 0.42 %ID, the MicroPET image quality [5] was “high-quality, high-contrast images” and the tissue uptake dose at 1 h (in vivo) was 0.72 ± 0.1 %ID. For the same compound, the tissue uptake dose at 4 h (in vivo) was 0.16 ± 0.05 %ID, the tissue uptake dose at 24 h (in vivo) was 0.18 ± 0.02 %ID and the tissue uptake at 1 h (in vivo; Bone) was 0.52 ± 0.27 %ID/g. The tissue uptake at 4 h (in vivo; Bone) was 0.13 ± 0.08 %ID/g, the tissue uptake at 24 h (in vivo; Bone) was 0.13 ± 0.15 %ID/g and the tissue uptake at 1 h (in vivo; Brain) was 0.05 ± 0.01 %ID/g. It also gave a tissue uptake at 4 h (in vivo; Brain) of 0.04 ± 0.02 %ID/g, a tissue uptake at 24 h (in vivo; Brain) of 0.03 ± 0.02 %ID/g and a tissue uptake at 1 h (in vivo; Heart) of 0.35 ± 0.1 %ID/g. The tissue uptake at 4 h (in vivo; Heart) was 0.22 ± 0.05 %ID/g, the tissue uptake at 24 h (in vivo; Heart) was 0.48 ± 0.17 %ID/g and the tissue uptake at 1 h (in vivo; Large intestine) was 1.34 ± 0.11 %ID/g. It also gave a tissue uptake at 4 h (in vivo; Large intestine) of 6.86 ± 0.88 %ID/g, a tissue uptake at 24 h (in vivo; Large intestine) of 0.85 ± 0.18 %ID/g and a tissue uptake at 1 h (in vivo; Lung) of 0.97 ± 0.25 %ID/g. It also gave a tissue uptake at 1 h (in vivo; Muscle) of 0.22 ± 0.08 %ID/g, a tissue uptake at 4 h (in vivo; Muscle) of 0.09 ± 0.04 %ID/g and a tissue uptake at 24 h (in vivo; Muscle) of 0.08 ± 0.1 %ID/g. It also gave a tissue uptake at 1 h (in vivo; Pancreas) of 21.6 ± 3.3 %ID/g, a tissue uptake at 4 h (in vivo; Pancreas) of 13.2 ± 1.79 %ID/g and a tissue uptake at 24 h (in vivo; Pancreas) of 5.18 ± 0.57 %ID/g. The tissue uptake at 1 h (in vivo; Small intestine) was 5.21 ± 0.75 %ID/g, the tissue uptake at 4 h (in vivo; Small intestine) was 2.1 ± 0.4 %ID/g and the tissue uptake at 24 h (in vivo; Small intestine) was 0.78 ± 0.14 %ID/g.
In the case of NO2A-RGD, the “Reduction of cellular uptake of ^64Cu-NO2A-RGD-Glu-6-Ahx-BBN(7-14)NH2 tracer” value (PC-3 cells [6]) is reported as 65%.
For NO3A-RGD-BBN(7-14)NH2, the IC50 (GRPr) is given as 92.8 ± 3.53 nM.
For ^64Cu-NO3A-BBN(7-14)NH2, the PC-3 tumor retention [7] is given as 0.44±0.39 %ID/g.
For ^64Cu-NO3A-RGD, the PC-3 tumor retention [7] is given as 0.55±0.32 %ID/g.
In the case of ^64Cu-NO3A-RGD-BBN(7-14)NH2, the PC-3 tumor retention [7] is given as 2.04±0.35 %ID/g, the “Retention in the kidneys” value [7] is given as 1.87±0.41 %ID/g and the “Internalization rate compared to ^64Cu-NO2A-RGD-Glu-6-Ahx-BBN(7-14)NH2” value [8] is given as “approximately three times higher”.
With ^natCu-NO2A-RGD the “Displacement of 125I-Echistatin (binding affinity for αvβ3 receptors)” value [9] was “minimal displacement; also recorded: extremely poor binding affinity”.
